Measured values taken from patent US20240116985A1 (published 2024).
Starred links: 1 amine or outer side, 2 acyl side, 3 side chain; linkers in the order of their positions; H or OH if unused. Positions of bridges follow the written chain, without caps; N, C: chain ends. Non-standard residues stand in square brackets, D forms with d. Primed or numbered codes have the meaning given here. PyrS2″ = (S)-3-amino-1-((pent-4-en-1-yloxy)carbonyl)pyrrolidine-3-carboxylic acid (stapling residue), C=CCCCOC(=O)N1CC[C@@](N[*:1])(C(=O)[*:2])C1; B5(4) = 2,2-bis(4-pentenyl)glycine = 2-amino-2-(pent-4-en-1-yl)hept-6-enoic acid (stitching residue), C=CCCCC(CCCC=C)(N[*:1])C(=O)[*:2]; B5(5) = 2,2-bis(4-pentenyl)glycine, 2-amino-2-(pent-4-en-1-yl)hept-6-enoic acid (stitching residue), C=CCCCC(CCCC=C)(N[*:1])C(=O)[*:2]; B5(21) = 2-amino-2-(pent-4-en-1-yl)hept-6-enoic acid, bis(4-pentenyl)glycine (stitching residue), C=CCCCC(CCCC=C)(N[*:1])C(=O)[*:2]; (NMe2)GlnR(3) = [NMe2]GlnR, N5,N5-dimethyl-L-glutamine, CN(C)C(=O)CC[C@H](N[*:1])C(=O)[*:2]; (NHCyBu)AsnR = N4-cyclobutyl-L-asparagine, O=C(C[C@H](N[*:1])C(=O)[*:2])NC1CCC1; (NHCyPr)AsnR = N4-cyclopropyl-L-asparagine, O=C(C[C@H](N[*:1])C(=O)[*:2])NC1CC1; (NHiPr)AsnR = N4-isopropyl-L-asparagine, CC(C)NC(=O)C[C@H](N[*:1])C(=O)[*:2]; (NHnPr)AsnR = N4-propyl-L-asparagine, CCCNC(=O)C[C@H](N[*:1])C(=O)[*:2]; (NHEt)AsnR = N4-ethyl-L-asparagine, CCNC(=O)C[C@H](N[*:1])C(=O)[*:2]; Phe(3-COOH) = N[C@@H](Cc1cccc(C(=O)O)c1)C(=O)O; 2F3MeF = Cc1cccc(C[C@H](N[*:1])C(=O)[*:2])c1F; AcLys = CC(=O)NCCCC[C@H](N[*:1])C(=O)[*:2]; Bta = N[C@@H](Cc1csc2ccccc12)C(=O)O; αAllylPro = C=CC[C@@]1(C(=O)O)CCCN1; tBuAla = CC(C)(C)C[C@H](N)C(=O)O; 3Thi = N[C@@H](Cc1ccsc1)C(=O)O; S8 = C=CCCCCCC[C@](C)(N)C(=O)O; Nle = CCCC[C@H](N)C(=O)O; Aib = CC(C)(N)C(=O)O

T1: B-cat-Halo (UniProt P35222 1-781, HaloTag NanoBRET 618 Ligand bound in the assay)
T1 sequence (looked up): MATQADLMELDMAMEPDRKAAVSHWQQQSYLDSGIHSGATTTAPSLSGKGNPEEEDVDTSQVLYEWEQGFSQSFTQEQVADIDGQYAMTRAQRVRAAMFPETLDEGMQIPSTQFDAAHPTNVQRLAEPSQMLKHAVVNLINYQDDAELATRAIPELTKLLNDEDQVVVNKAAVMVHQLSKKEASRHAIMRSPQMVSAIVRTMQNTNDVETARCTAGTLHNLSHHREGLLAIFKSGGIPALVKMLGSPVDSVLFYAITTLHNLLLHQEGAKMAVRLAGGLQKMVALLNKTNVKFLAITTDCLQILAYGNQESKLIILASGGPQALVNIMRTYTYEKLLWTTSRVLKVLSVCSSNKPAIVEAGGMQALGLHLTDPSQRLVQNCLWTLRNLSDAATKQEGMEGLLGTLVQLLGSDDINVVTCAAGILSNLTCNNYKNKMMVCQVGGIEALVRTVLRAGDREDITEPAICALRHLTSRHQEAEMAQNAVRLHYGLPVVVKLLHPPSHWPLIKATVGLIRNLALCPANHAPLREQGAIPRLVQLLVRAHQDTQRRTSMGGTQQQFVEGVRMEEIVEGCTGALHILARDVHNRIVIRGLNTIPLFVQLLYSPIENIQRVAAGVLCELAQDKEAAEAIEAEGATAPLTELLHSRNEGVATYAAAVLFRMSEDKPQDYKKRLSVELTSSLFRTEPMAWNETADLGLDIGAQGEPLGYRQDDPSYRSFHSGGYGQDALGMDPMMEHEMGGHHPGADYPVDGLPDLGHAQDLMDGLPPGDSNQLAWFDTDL

T2: full-length beta-Catenin (Uniprot ID P35222) (Homo sapiens (Human), UniProt P35222 1-781)
T2 construct: also called bCat; B-Catenin
T2 sequence: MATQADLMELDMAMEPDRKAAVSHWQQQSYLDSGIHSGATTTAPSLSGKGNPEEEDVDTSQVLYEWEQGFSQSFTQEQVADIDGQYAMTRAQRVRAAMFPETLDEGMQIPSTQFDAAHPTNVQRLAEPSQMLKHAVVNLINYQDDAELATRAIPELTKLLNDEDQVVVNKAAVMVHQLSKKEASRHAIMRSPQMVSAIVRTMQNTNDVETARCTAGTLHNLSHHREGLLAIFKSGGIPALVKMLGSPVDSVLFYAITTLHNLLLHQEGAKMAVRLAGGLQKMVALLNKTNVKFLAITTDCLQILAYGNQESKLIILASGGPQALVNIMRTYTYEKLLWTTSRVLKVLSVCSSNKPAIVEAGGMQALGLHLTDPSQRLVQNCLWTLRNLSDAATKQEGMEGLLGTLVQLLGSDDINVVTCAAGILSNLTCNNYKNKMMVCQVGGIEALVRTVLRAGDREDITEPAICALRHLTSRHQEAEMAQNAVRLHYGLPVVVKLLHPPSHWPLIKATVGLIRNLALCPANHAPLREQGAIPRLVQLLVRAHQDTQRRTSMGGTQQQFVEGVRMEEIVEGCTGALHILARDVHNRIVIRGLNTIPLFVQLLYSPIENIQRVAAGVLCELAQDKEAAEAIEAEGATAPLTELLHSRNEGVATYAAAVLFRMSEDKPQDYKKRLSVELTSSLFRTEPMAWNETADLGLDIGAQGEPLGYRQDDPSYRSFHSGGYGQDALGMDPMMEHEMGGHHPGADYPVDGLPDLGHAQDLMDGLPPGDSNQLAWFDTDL


These binders were tested against T1, B-cat-Halo (assay: cell-based or functional assay).

| Binder | NanoBRET Abs IC50 [µM] |
| --- | --- |
| Ac-[αAllylPro]D[tBuAla][B5(4)]D[Phe(3-COOH)]AAF[AcLys][PyrS2″][2F3MeF][Bta][MorphGln]-NH2 (staple 1-4, 4-11; not fully specified; printed as Ac-PL3-Asp-Npg-B5-Asp-3COOHF-Ala-Ala-Phe-AcLys-PyrS2-2F3MeF-BztA-MorphGln-NH2) [I-2549] | 2.5 |
| Ac-[αAllylPro]D[tBuAla][B5(4)]D[Phe(3-COOH)]AAF[AcLys][PyrS2″][2F3MeF][Bta][MorphGln]-NH2 (staple 1-4, 4-11; not fully specified; printed as Ac-PL3-Asp-Npg-B5-Asp-3COOHF-Ala-Ala-Phe-AcLys-PyrS2-2F3MeF-BztA-MorphGln-NH2) [I-2548] | 3.6 |

Now from value to binder:

| NanoBRET Abs IC50 [µM] | Binder |
| --- | --- |
| 9.8 | Ac-[αAllylPro]D[tBuAla][B5(4)]D[Phe(3-COOH)][Aib]AF[Nle][PyrS2″][3Thi][Bta][(NMe2)GlnR(3)]-NH2 (staple 1-4, 4-11) [I-2551] |
| 10.4 | Ac-[αAllylPro]D[tBuAla][B5(4)]D[Phe(3-COOH)][Aib]AF[Nle][PyrS2″][3Thi][Bta][(NHEt)GlnR]-NH2 (staple 1-4, 4-11) [I-2552] |

The binders below were run against T2, full-length beta-Catenin (Uniprot ID …) (assay: fluorescence polarization competition; full-length beta-catenin with 5FAM-labeled TCF4 residues 10-53 probe as competitor).
Description: The plate was incubated protected from light for 60 minutes at 20° C. prior to read. Reads were performed on a CLARIOstar plate reader (BMG Labtech) in duplicate, and data were fitted to a 1:1 binding model with hill slope using an in-house script. All provided concentrations are final concentrations.

| Binder | IC50 [µM] |
| --- | --- |
| Ac-[αAllylPro]DA[B5(21)][(NHCyPr)AsnR]DAAFV[S8]F[Bta]Q-NH2 (staple 1-4, 4-11) [I-538] | 5 |
| XDIXDDAAFNXFXQ (not fully specified; N-terminal Ac; PL3 at 1; B5 at 4; S8 at 11; 2OMeF at 12; BztA at 13; C-terminal NH2; staples PL3(1)-B5(4) and B5(4)-S8(11) by olefin metathesis, It has the same description as I-550 and is the earlier eluting HPLC peak (staple isomer composition)) [I-549] | 0.071 |
| XDIXDDAAFNXFXH (not fully specified; N-terminal Ac; PL3 at 1; B5 at 4; S8 at 11; 2OMeF at 12; BztA at 13; C-terminal NH2; staples PL3(1)-B5(4) and B5(4)-S8(11) by olefin metathesis) [I-554] | 0.0275 |
| XDIXDDAAFNXFXH (not fully specified; N-terminal Ac; PL3 at 1; B5 at 4; S8 at 11; 2OMeF at 12; BztA at 13; C-terminal NH2; staples PL3(1)-B5(4) and B5(4)-S8(11) by olefin metathesis, It has the same description as I-554 and is the earlier eluting HPLC peak (staple isomer composition)) [I-553] | 0.061 |
| XDLXDDAAFQXFXQ (not fully specified; N-terminal Ac; PL3 at 1; B5 at 4; S8 at 11; BztA at 13; C-terminal NH2; staples PL3(1)-B5(4) and B5(4)-S8(11) by olefin metathesis) [I-558] | 0.056 |
| Ac-[αAllylPro]DA[B5(21)][(NHCyBu)AsnR]DAAFV[S8]F[Bta]Q-NH2 (staple 1-4, 4-11) [I-539] | 5 |

Other lines, results leading:

| IC50 [µM] | Binder |
| --- | --- |
| 0.109 | XDTXDEAAFQXFXQ (not fully specified; N-terminal Ac; PL3 at 1; TOMe at 3; B5 at 4; S8 at 11; BztA at 13; C-terminal NH2; staples PL3(1)-B5(4) and B5(4)-S8(11) by olefin metathesis) [I-542] |
| 5 | Ac-[αAllylPro]DA[B5(21)][(NHnPr)AsnR]DAAFV[S8]F[Bta]Q-NH2 (staple 1-4, 4-11) [I-537] |
| 5 | Ac-[αAllylPro]DA[B5(21)][(NHiPr)AsnR]DAAFV[S8]F[Bta]Q-NH2 (staple 1-4, 4-11) [I-535] |
| 0.034 | XDLXDDAAFQXFXH (not fully specified; N-terminal Ac; PL3 at 1; B5 at 4; S8 at 11; BztA at 13; C-terminal NH2; staples PL3(1)-B5(4) and B5(4)-S8(11) by olefin metathesis, It has the same description as I-560 and is the later eluting HPLC peak (staple isomer composition)) [I-561] |
| 0.051 | Ac-[αAllylPro]DL[B5(5)]DDAAFN[S8]F[Bta]Q-NH2 (staple 1-4, 4-11) [I-562] |
| 0.043 | XDLXDDAAFQXFXQ (not fully specified; N-terminal Ac; PL3 at 1; B5 at 4; S8 at 11; BztA at 13; C-terminal NH2; staples PL3(1)-B5(4) and B5(4)-S8(11) by olefin metathesis, It has the same description as I-558 and is the later eluting HPLC peak (staple isomer composition)) [I-559] |
| 0.081 | Ac-[αAllylPro]DL[B5(5)]DDAAFQ[S8]F[Bta]H-NH2 (staple 1-4, 4-11) [I-560] |
| 4.47 | Ac-[αAllylPro]DA[B5(21)][(NHEt)AsnR]DAAFV[S8]F[Bta]Q-NH2 (staple 1-4, 4-11) [I-536] |
